The values below come from patent publication US20170304442A1 (SORRENTO THERAPEUTICS, published 2017).

Assay [1] deals with T1, recombinant mouse WISP1/His (mouse, UniProt O54775 23-367).
T1 construct: also called murine WISP1; mWISP1; not shown: His tag
T1 sequence (looked up): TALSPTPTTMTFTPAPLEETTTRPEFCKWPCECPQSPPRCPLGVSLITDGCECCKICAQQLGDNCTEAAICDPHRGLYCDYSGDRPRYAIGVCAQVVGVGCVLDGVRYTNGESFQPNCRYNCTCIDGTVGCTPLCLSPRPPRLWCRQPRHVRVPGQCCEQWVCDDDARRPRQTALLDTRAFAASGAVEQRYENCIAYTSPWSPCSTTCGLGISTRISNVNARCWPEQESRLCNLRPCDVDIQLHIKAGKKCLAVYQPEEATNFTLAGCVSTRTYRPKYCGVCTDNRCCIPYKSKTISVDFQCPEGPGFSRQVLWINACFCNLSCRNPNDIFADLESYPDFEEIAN
Description: ELISA screening.

The target of assay [2] is T2, recombinant human WISP1/His (human, UniProt O95388 23-367).
T2 construct: also called hWISP1; recombinant human WISP1 protein; not shown: His tag
T2 sequence (looked up): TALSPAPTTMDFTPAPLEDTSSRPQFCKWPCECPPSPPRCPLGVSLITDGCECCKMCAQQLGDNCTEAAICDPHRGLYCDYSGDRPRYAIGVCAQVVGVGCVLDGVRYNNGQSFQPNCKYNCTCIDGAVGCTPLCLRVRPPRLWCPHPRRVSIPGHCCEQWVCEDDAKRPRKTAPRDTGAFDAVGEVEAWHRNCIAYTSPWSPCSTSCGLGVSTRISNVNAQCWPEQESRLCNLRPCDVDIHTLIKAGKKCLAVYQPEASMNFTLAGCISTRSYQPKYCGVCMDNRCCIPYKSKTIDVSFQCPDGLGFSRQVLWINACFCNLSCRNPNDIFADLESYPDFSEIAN
Description: ELISA screening. For orientation: In an ELISA, binding on a coated surface is turned into a signal by an enzyme label.

B1: WIr1B11 (antibody, V domains shown)
VH: EVQLVQSGAEVKKPGASVKVSCKASGYTFTSYDINWVRQATGQGPEWLGWLNPGSGKTGNAQNFQGRVFMTWDTSKDTAYMEMSSLRSDDTAVYYCARNLDYWGQGTLVTVSS
VL: DIVMTQTPSSLSASVGDRVTITCRASQSISSYLNWYQQKPGKAPKLLIYAASSLQSGVPSRFSGSRSGTDFTLTITNVQPEDFATYYCLQAYDFPITFGQGTKVEIK
notes: Fully human IgG; also called Wlr1B11
For B1, the binding result in assay [1] and in assay [2] was “binds” throughout.

B2: WI2D9 (antibody, V domains shown)
VH: EVQLVQSGAEVKRSGASVKVSCKLSGDTLTDLSIHWVRQAPGKGLEWMGGFDFEDGEIVYGDKFKGRVTVTEDPSTDTAYMDLKRLTFEDTAIYYCATIKDIPGRYYFDFWGQGTLVTVSS
VL: QSVVTQPPSVSGAPGQRVTISCTGSSSNIGAGYDVHWYQQLPGTAPKLLIYGNSNRPSGVPDRFSGSKSGTSASLAITGLQAEDEADYYCQSYDSSLSGSNWVFGGGTKLTVL
notes: Fully human IgG; also called Wl2D9
B2: the binding result in assay [1] and in assay [2] was “binds” each time.

B3: WIr1E2 (antibody, V domains shown)
VH: QMQLVQSGAEVKEPGSSVKVSCKASGDNSYPLNWVRQAPGQGLEWMGGIIPIFGTPNYAQKFEGRVTITADESTNTAYMEISSLRFEDTAMYYCAREGDGYNYSPLDYWGQGTLVTVSS
VL: QAVLTQPPSVSKGLRQTATLTCTGDSSNVGNQGAAWLQQHPGLPPKVLSYRNNSRPSGISERLFVSRSGNSASLTITGLQPEDEADYYCSAWDSSLGAWVFGGGTQLTVL
notes: Fully human IgG; also called Wlr1E2
For the molecule B3, the binding result in assay [1] and in assay [2] was “binds” in each case.

B4: WI1A5 (antibody, V domains shown)
VH: QVQLVQSGREMKKPGASMKVSCKASGYTFTKYGISWVRQAPGQGLEWMGWISADNGKTHYAQKLQGRVTMTTDTSTSTAYLELRRLRSDDTAVYFCANDGGYWGQGTLVTVSS
VL: QSVLTQPPSVSGAPGQRVTISCTGTSSNLGAGFPVYWYQQLPGKPPKVLIDGNNDRPSGVPDRVSGSKSDTSASLAITGLQAEDEADYYCLSYDSGLDGWVFGGGTKLTVL
notes: Fully human IgG; also called Wl1A5
As for B4, the binding result in assay [1] and in assay [2] was “binds” throughout.

B5: WI1E6 (antibody, V domains shown)
VH: EVQLLESGGGVVQPGRSLRLSCAASGFTFSSYGMHWVRQAPGKGLEWVAVIWYDGSNKYYADSVKGRFTISRDNSKNTLYLQMNSLRAEDTAVYYCARGSAFNIWGQGTMVTVSS
VL: QAVVTQPASVSGSPGQSITISCIGTSSDVGGYNYVSWYQQHPGKAPKLMIYDVSNRPSGVSNRFSGSKSGNTASLTISGLQAEDEADYYCSSYTTSNTFVFGTGTKVTVL
notes: Fully human IgG; also called Wl1E6
As to B5, the binding result in assay [1] and in assay [2] was “binds” in each case.

B6: WI1A6 (antibody, V domains shown)
VH: EVQLLESGGGVVQPGRSLRLSCAASGFTFSSYGMHWVRQAPGKGLEWVAVIWYDGSNKYYADSVKGRFTISRDNSKNTLYLQMNSLRAEDTAVYYCARGSAFNIWGQGTMVTVSS
VL: LPVLTQPASVSGSPGQSITITCTGTSSDVGAYNYVSWYQQRPGKAPKLMIYDVSKRPSGVSNRFSGSKSGNTASLTISGLQAEDEADYYCSSYTSSSTYVVFGGGTKLTVL
notes: Fully human IgG; also called Wl1A6
For the molecule B6, the binding result in assay [1] and in assay [2] was “binds” in each case.

B7: WIr1B6 (antibody, V domains shown)
VH: QVQLVESGGGLVQPGGSLRLSCAASGFTFDDYAMHWVRQAPGKGLEWVSGISWNSGSIGYADSVKGRFTISRDNAKNSLYLQMNSLRAEDTALYYCAKVRAAAGTGGDYFDYWGQGTLVTVSS
VL: LPVLTQPRSVSGSPGQSVTISCTGSSSDVGRSNFVSWYQQYPGKAPKLMIFDVNKRPSGVPDRFSGSKSGNTASLTISGLQADDEAEYYCSSYAGTWIFGGGTQLTVL
notes: Fully human IgG; also called Wlr1B6
Take B7: the binding result in assay [1] and in assay [2] was “binds” in each case.
